Results reported in patent US20260092093A1 (TJ BIOPHARMA SHANGHAI, published 2026).
Where a chain is given by its changes, count along the chain named.

T1: hIL-18 receptor (hIL-18Rα and hIL-18Rβ) (human, UniProt Q13478 19-541; O95256 20-599)
T1 sequence (looked up) 1: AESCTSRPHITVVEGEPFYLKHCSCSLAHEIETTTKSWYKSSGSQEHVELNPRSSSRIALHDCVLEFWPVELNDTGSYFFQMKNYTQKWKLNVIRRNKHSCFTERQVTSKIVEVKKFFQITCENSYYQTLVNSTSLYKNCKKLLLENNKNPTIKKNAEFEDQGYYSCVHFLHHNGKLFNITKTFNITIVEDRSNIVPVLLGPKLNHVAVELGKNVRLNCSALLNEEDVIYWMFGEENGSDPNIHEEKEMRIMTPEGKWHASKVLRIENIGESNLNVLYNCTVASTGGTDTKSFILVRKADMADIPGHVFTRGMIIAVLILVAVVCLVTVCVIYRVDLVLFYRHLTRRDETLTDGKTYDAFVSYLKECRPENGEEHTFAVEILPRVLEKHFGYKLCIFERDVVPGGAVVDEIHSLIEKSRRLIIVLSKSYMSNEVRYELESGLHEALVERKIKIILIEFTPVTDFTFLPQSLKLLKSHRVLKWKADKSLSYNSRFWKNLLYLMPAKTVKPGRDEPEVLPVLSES
T1 sequence (looked up) 2: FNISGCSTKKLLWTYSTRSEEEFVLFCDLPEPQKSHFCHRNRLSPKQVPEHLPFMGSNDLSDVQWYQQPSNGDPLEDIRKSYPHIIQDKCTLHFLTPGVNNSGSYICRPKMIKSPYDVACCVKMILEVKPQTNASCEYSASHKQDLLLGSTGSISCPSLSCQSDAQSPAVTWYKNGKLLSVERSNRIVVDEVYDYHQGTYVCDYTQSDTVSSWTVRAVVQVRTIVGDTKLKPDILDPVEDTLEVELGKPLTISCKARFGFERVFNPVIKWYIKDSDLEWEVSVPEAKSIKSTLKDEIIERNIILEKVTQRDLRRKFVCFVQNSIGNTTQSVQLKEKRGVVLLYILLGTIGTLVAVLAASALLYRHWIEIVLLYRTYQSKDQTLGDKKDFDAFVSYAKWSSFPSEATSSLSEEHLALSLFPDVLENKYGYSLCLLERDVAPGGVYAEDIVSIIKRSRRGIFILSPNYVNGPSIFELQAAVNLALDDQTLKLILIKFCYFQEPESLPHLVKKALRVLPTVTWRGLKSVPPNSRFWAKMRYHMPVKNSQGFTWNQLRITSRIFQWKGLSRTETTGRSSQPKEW

T2: hIL-18BP-hFc (human, UniProt O95998 31-194, limits assumed)
T2 sequence (looked up): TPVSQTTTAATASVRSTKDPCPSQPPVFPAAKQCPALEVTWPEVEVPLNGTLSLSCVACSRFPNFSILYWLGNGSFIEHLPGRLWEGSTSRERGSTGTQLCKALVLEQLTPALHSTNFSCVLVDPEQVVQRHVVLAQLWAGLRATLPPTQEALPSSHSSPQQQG

B1: IL-18 variant polypeptide M32 (ligand)
chain: YFPKLGSKLSVIRNLNDQVLFIDQGNRPLFEDMTDSDCRDNAPRTIFIISMYKSSSRRGMAVTISVKCEKISTLSCENKIISFKEMNPPDNIKDTKSDIIFFQRSVPGHDNKMQFESSSYEGYFLACEKERDLFKLILKKEDELGDRSIMFTVQNED
B2: IL-18 variant polypeptide M11 (ligand)
chain: B1 chain with G6R, S56R, R57N, N91G, R104T
B3: IL-18 variant polypeptide M36 (ligand)
chain: B1 chain with G6S, S54A, S56D, R57Q, N91G
B4: IL-18 variant polypeptide M21 (ligand)
chain: B1 chain with G6R, R57T, N91G, R104S
B5: IL-18 variant polypeptide M24 (ligand)
chain: B1 chain with G6R, S54Y, S56T, R57S
B6: IL-18 variant polypeptide M15 (ligand)
chain: B1 chain with G6R, S56Y, R57T, N91G
B7: IL-18 variant polypeptide WM8 (ligand)
chain: B1 chain with G6R, S54D, S56Q, R57P, N91S
B8: IL-18 variant polypeptide M12 (ligand)
chain: B1 chain with G6K, S54G, S56G, R57A, N91T
B9: IL-18 variant polypeptide M17 (ligand)
chain: B1 chain with G6R, S54L, S56T, R57A, N91G
B10: IL-18 variant polypeptide M13 (ligand)
chain: B1 chain with G6K, S54Q, S56I, R57W
B11: IL-18 variant polypeptide WM10 (ligand)
chain: B1 chain with G6K, S54D, S56Q, R57P, N91S
B12: IL-18 variant polypeptide MM5 (ligand)
chain: B1 chain with P3G, S54L, S56T, R57E, N91G, R104S
B13: IL-18 variant polypeptide M33 (ligand)
chain: B1 chain with P3E, G6H, S54R, S56T, R57H
B14: IL-18 variant polypeptide M35 (ligand)
chain: B1 chain with G6R, S54G, S56G, R57A, N91G

The binders below were run against T1, hIL-18 receptor (hIL-18Rα and hIL-18Rβ) (assay: cell-based or functional assay).

Binder	EC50 (nM), hIL-18 reporter assay [nM]
B1	5.9
B2	0.13
B3	3.9
B4	1.9
B5	0.99
B6	0.13
B7	7
B8	0.04
B9	0.41
B10	0.035
B11	14.7
B12	0.028
B13	18.4
B14	0.62

Each binder was assayed against T2, hIL-18BP-hFc (assay: cell-based or functional assay).

Binder	EC50 (nM) in the Presence of 1 µg/mL hIL-18BP-hFc, hIL-18 reporter assay [nM]	EC50 Fold Change (+BP/-BP), hIL-18 reporter assay [fold]
B1	4.1	0.69
B2	0.21	1.62
B3	2.5	0.64
B4	2.1	1.11
B5	1.99	2.01
B6	0.12	0.92
B7	5.2	0.74
B8	0.03	0.75
B9	0.32	0.78
B10	0.026	0.74
B11	15.6	1.06
B12	0.08	2.86
B13	10.7	0.58
B14	0.51	0.82

Molecular target: T1, hIL-18 receptor (hIL-18Rα and hIL-18Rβ)
Experiment: cell-based or functional assay
Remark: another data set of the same source

Binder	EC50 (nM), PBMC assay (hIFNγ release) [nM]
B1	0.13
B2	0.044
B3	1.1
B4	0.045
B5	0.054
B6	0.049
B7	0.68
B8	0.043
B9	0.13
B10	0.02
B11	0.53
B12	0.035
B13	0.51
B14	0.085

Molecular target: T2, hIL-18BP-hFc
Experiment: cell-based or functional assay
Remark: another data set of the same source

Binder	EC50 (nM) in the Presence of 1 µg/mL hIL-18BP-hFc, PBMC assay (hIFNγ release) [nM]	EC50 Fold Change (+BP/-BP), PBMC assay (hIFNγ release) [fold]
B1	0.1	0.77
B2	0.068	1.55
B3	0.8	0.73
B4	0.049	1.09
B5	0.08	1.48
B6	0.036	0.73
B7	1.02	1.5
B8	0.045	1.05
B9	0.13	1
B10	0.025	1.25
B11	0.44	0.83
B12	0.045	1.29
B13	0.35	0.69
B14	0.14	1.65
